Experimental data from paper PMC3092483.

What was measured:
[1] = target: GST-C2B fusion protein of synaptotagmin I with the syt^B-IE mutation (I420E) (Drosophila); experiment: pull-down
[2] = target: GST-C2AB fusion protein of synaptotagmin I with the syt^B-IE mutation (I420E) (Drosophila); experiment: pull-down
[3] = target: GST-C2AB fusion protein of synaptotagmin I (wild type) (Drosophila); experiment: pull-down
[4] = target: GST-C2B fusion protein of synaptotagmin I (wild type) (Drosophila); experiment: pull-down
[5] = target: full length t-SNAREs; experiment: co-flotation

increase of binding by Ca2+ over EGTA [1] [units] | fold increase of binding by Ca2+ over EGTA [2] [fold] | increase of binding by Ca2+ over EGTA [2] [units] | fold increase of binding by Ca2+ over EGTA [3] [fold] | increase of binding by Ca2+ over EGTA [3] [units] | increase of binding by Ca2+ over EGTA [4] [units] | percent of wild type binding (% of wild type levels) [5] | Substance
0.105 | 4.5 | 0.112 | 2.4 | 0.2 | 0.116 | – | full length t-SNAREs (complex)
– | – | – | – | – | – | 70 | synaptotagmin C2AB domain with the syt^B-IE mutation (I420E), as used in the co-flotation assay (domain or fragment)
